# Biological target: taxol-stabilized microtubules polymerized from porcine brain tubulin (UniProt P02550)
# Experiment: MT-binding assay (cosedimentation)
# Details: 5 μM CG2 mutant, […] taxol–MTs; parent: est. 1.0; read off a plot
# Sequence of CLIP-170 CG2 fragment (206-288), P30622 H276A (P30622 206-288 H276A): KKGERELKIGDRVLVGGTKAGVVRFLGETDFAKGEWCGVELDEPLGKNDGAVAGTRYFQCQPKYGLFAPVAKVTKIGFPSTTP
# Sequence of taxol-stabilized microtubules polymerized from porcine brain tubulin (P02550 whole entry, chain 1 of 2): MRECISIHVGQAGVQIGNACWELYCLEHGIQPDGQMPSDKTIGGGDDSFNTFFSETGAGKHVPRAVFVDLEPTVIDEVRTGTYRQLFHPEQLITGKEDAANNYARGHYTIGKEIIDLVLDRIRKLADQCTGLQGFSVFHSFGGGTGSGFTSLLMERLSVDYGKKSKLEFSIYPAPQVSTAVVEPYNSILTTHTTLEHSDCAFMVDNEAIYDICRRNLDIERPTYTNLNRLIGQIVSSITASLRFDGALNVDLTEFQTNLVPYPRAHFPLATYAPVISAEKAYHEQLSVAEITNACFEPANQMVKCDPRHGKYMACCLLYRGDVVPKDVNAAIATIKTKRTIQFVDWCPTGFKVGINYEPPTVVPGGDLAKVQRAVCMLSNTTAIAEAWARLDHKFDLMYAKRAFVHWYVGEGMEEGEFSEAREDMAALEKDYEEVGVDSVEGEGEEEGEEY
# Sequence of taxol-stabilized microtubules polymerized from porcine brain tubulin (chain, as listed by the source, chain 2 of 2): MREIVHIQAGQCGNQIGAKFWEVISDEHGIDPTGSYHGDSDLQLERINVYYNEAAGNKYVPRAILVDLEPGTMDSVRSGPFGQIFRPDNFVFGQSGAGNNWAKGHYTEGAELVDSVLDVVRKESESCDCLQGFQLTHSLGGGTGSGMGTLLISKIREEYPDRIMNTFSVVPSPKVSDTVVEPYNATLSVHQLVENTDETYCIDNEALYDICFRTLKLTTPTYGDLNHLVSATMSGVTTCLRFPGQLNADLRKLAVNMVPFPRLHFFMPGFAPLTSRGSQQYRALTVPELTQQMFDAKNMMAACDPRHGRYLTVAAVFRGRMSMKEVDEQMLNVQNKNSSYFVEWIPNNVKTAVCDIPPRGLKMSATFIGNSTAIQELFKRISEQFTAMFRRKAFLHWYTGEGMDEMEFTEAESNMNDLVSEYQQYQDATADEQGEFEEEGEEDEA
substance,measurement,value
"CLIP-170 CG2 fragment (206-288), P30622 H276A",ratio to parent,0.91
